Test results: publication PMC8345336
Read-outs that look alike come from different tables or passages of the source. Values belong to the substance of their own block, whether it stands above or below them.

What was measured:
[1] = target: soluble methane monooxygenase hydroxylase component (sMMOH), (αβγ)2, from Methylosinus trichosporium OB3b (Methylosinus trichosporium OB3b) (UniProt P27353); assay: NMR titration
[2] = target: soluble methane monooxygenase hydroxylase component (sMMOH), (αβγ)2, from Methylosinus trichosporium OB3b (Methylosinus trichosporium OB3b) (UniProt P27353); assay: NMR titration; remark: listed apart in the source
[3] = target: soluble methane monooxygenase hydroxylase component (sMMOH), (αβγ)2, from Methylosinus trichosporium OB3b (Methylosinus trichosporium OB3b) (UniProt P27353); assay: NMR titration; remark: listed apart in the source
[4] = target: MMOR (Methylococcus capsulatus) (UniProt P22868); details: cited from earlier work
[5] = target: MMOB (Methylococcus capsulatus) (UniProt P18797); details: cited from earlier work
[6] = target: MMOR (Methylosinus trichosporium) (UniProt Q53563); details: cited from earlier work
[7] = target: MMOB (Methylosinus trichosporium) (UniProt P27356); assay: fluorescence quenching; details: cited from earlier work

- Kd [1]: 90 nM
- Kd [2]: 60 nM
- half dissociation value [2]: 9.1 µM
- half dissociation value [3]: 13.7 µM
Substance: methane monooxygenase reductase component (MMOR), unlabelled (from UniProt Q53563 1-340) (enzyme)

Substance: sMMOH (diferric) (from UniProt P22869)
- Kd [4]: 900 nM
- Kd [5]: 550 nM

Substance: sMMOH (diferric) (from UniProt P27353)
- Kd [6]: 10 nM
- Kd [7]: 68 nM
